Results reported in a protein production outcome set (Wang et al. 2014).

Assay: label from the status in PepcDB records
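Also: failed if final PepcDB status was selected cloned or expressed and not failed if soluble or beyond.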

| Sequence | protein production |
| --- | --- |
| MGNPADQKDSKAKQKTEVFPVTIDDASNQDVTIKKEPKKIVSLMPSNTEITYALGLGDKVVGVTTNDTYPKEVKKVEKVGDMNVNVEKVISLKPDLVLAHESSMSASADAIKQLKDAGITVLTVNDAQSFSEVYKSIEMIGEAGGAEKKADQLVKSMKSDLKDIQEKAKTISKDEEKSVFIEVSPDPDIYTTGKDTFMNEMLNVIHAKNAAADQTGWVQMTDEAIVKLNPDAIVTTDGVKAKAVEKRDGWSEINAVKHHRVYDVDPDLVTRSGPRLIEGVEELAESIYPDTFKE | failed |
| MGNRSTADADGLLAGRGPAAGASAGASAGLAGQGAAALVGGVLLIGAVLAGNSLVCVSVATERALQTPTNSFIVSLAAADLLLALLVLPLFVYSEVQGGAWLLSPRLCDALMAMDVMLCTASIFNLCAISVDRFVAVAVPLRYNRQGGSRRQLLLIGATWLLSAAVAAPVLCGLNDVRGRDPAVCRLEDRDYVVYSSVCSFFLPCPLMLLLYWATFRGLQRWEVARRAKLHGRAPRRPSGPGPPSPTPPAPRLPQDPCGPDCAPPAPGLPRGPCGPDCAPAAPGLPPDPCGPDCAPPAPGLPQDPCGPDCAPPAPGLPRGPCGPDCAPPAPGLPQDPCGPDCAPPAPGLPPDPCGSNCAPPDAVRAAALPPQTPPQTRRRRRAKITGRERKAMRVLPVVVGAFLLCWTPFFVVHITQALCPACSVPPRLVSAVTWLGYVNSALNPVIYTVFNAEFRNVFRKALRACC | failed |
| MGNSITVKRKRAKVMKIDGETFRIKTPVTAREVTADYPGYVLLDSQAVKHFGVRSKPLEPNQTLKPKKTYFLVELPKLPPETTAVDTENKLPYRRVMSGIHVGAKERLDMLMLSRRTVSDVTIGRSDGGDGFGPELGPGHTSVRLRLPRSQITKLMEENNNDASAIAEKILGIYMERSGELGGGRGGVDGRRELGSGEIKAREVSFAGEGGRELPVLWSRSGK | failed |
| MGPERHLSGAPARMATVVLGGDTMGPERIFPNQTEELGHQGPSEGTGDWSSEEPEEEQEETGSGPAGYSYQPLNQDPEQEEVELAPVGDGDVVADIQDRIQALGLHLPDPPLESEDEDEEGATALNNHSSIPMDPEHVELVKRTMAGVSLPAPGVPAWAREISDAQWEDVVQKALQARQASPAWK | failed |
| MGPKRRQLTFREKSRIIQEVEENPDLRKGEIARRFNIPPSTLSTILKNKRAILASERKYGVASTCRKTNKLSPYDKLEGLLIAWFQQIRAAGLPVKGIILKEKALRIAEELGMDDFTASNGWLDRFRRRRS | not failed |
| MGPLVKEKYEEVEQIPLKKPHIVSLIGGFGYREPIFRKVLTTAALDSGINYTLISGPSLDPSKFKEIPKNVQILRFVGDTFPYIRSSDAVIAPGGHSTMMEALSFGTPILSFPDEGHSEQENNAAVIEEEGYGRMLSYSTPPEVILECIREVLEDKKYRDKVKRLQRLASELDGLEHHHHHH | not failed |
| MGQELLVRAHEPETADIEIIPVTTVVQVTEQNSTGDAAVALDTVTVVGERYVDDIVATLTTLRVGMAVLLQRESGNQYDDNAISVWTLQHAKLGYIARYQNQPYATLMDQGQRLYGIVTVLDQQKQHLELMLWRTTAVPSPIEALEHHHHHH | failed |
| MGQFYCLHCDRYFSNVSVRDDHFKTKKHKKRVNMMMGQAPHSQLDADLAGGMGMPDNGPKLMSNLVFTELRKPETEDLPGMGQFNCLLCHRNFSNASVMDYHFKTKKHKKRVKKIERPAPHSQLDADLAGGMGMPDNGPKLMSA | not failed |
| MGQHEPGAALGRMVRAAWSETLGEDHPDTLAAANRLAGCLVGLRKYAEARDLFADLLPRCERALGWEDPLTLTVVSNLGGCLSALGAHEEARRQCEDIVRRSRLALGPDDPRTLRAASNLAVFLRRLDDHQAALAVWEDTLLRYRRVLGEDHPDTLHAKRDLVALLRAMGEHDRAHAVAGEPLEHHHHHH | failed |
| MGQVEVIDRRQSVFGDDIQLQKRSSSYEIISNGVFLMSTENGRSEREMVTLGAQHMKNAVHSVLIGGLGVGITADEAVHLNDHVQVHVVEIEPSVVEWQYRYLYPFSNQALEHERTAIIISDIQQWLRTNERTYDLICLDTDNGPDWMVHKQNASLYGKIGLELVRERVRVGGAVSFWSASASESFLHELETLFDRVYEHAVSISHTLPPDYVYVACRDLEHHHHHH | not failed |
| MGRKRKHSETEAPAPVKKSDEPAPDRPKRTLLGWKDKSEGEAEKAKALTSSGFKNKEKVLVTCSRRISFRYRSLMLNIVSLLPHCKKDSKVEAKSSKGATLNELIELKNSNSCLFFECRKHKDLYMWMVKSPNGPSVKFLVKAVHAMEEMKLTGNHLKGSRPLLTFSSNFDKDAHWKLLKEMLTQVFGIPKEHRKSKPYHDHVFVFSIVDEHIWFRNYQISVPHNESDKIAKGGLDKMTLIEVGPRFCLNPIKIFAGSFGGPTLYENPLYVSPNQIRALEKRNKAGKFAKKIKAKTRKKMHELSNPLEPDEFADMWKDDE | failed |
| MGRMSEKLGQDIKQSIFKVPPLIQKSDIDPEHCRVSAQLDDNVDDNIPLRVMLLLMDEVFDLKDRNQWLRRNIKNLLQQLIKATYGDTINRKIVDHVDNMTSPEQVSDYVKRFRDSYWPNGILAETPPRRDKNLRMRTRVAAKTTLLGIMPDELKHIIGADTTRKGILRVFEMFQHQPLNRRLVYVFLEGFLETLFPQYKFPELFEKLHSRSPRVLKYSHKLRSLQKR | failed |
| MGRNQGAYLDPSESILMLMVAFLLVLLNAFFVLSEFALVKVRKTRLEELVKIGNSNAKLALKMSQRLDTYLSATQLGITLSSLALGWVGEPAIAKLLAALFESMDLRENPIFIHSMSVVIAFLSITFLHVVLGEIVPKSLAIAKSEKATLFAARPLHVFWVVFYPVVRLFDVIAHFFLKKMGINPKEHDGTHSEEELKIIVGESLREGIIDSVEGEIIKNAXDFSDTSAKEIMTPRKDMVCLDEENSYEENIDIVLKGHFTRYPYCKGSKDNIIGMVHIRDLLSRSIFTPKMHDFNQIVRKMIIVPESASISQILIKMKKEQIHTALVIDEYGGTAGLLTMEDIIEEIMGEISDEYDLKQEGINKLEEGVFELEGMLDLESVEEALHIEFDKECEQVTLGGYVFSLLERMPMEGDTIVSHGYSFEVLSVDGARIKRLKAVKQDQGENEA | failed |
| MGRVYLVGAGPGDPELLTLKAYRLLKEAPVVLYDRLVDERVLALAPGEKVYVGKEEGESEKQEEIHRLLLRHARAHPFVVRLKGGDPMVFGRGGEEVLFLLRHGVPVEVVPGVTSLLASGLPLTHRGLAHGFAAVSGVLEGGGYPDLRPFARVPTLVVLMGVGRRVWIAKELLRLGRDPREPTLFVERASTPKERRVHARLEEVAEGKVEVRPPALWILGEVVRVFAEKEAPVDALALGG | not failed |
| MGSGESKANTAETPEVLDVKLTGPEKVNPGESAAYEAAVSYGDEAVTDADEVEFEVWKEGEKDASQMFKVKQEKGVYRLETTFKEDGVYTVQSHVTAKKQHSMPTLKVQVGDADAASNQSEEEHSHHHLEHHHHHH | not failed |
| MGSLGFLAGGVMPLEQLKQELSEVKGVFGVNLFRPQTDAPKPSDIDELAGLLSSAFRQFGLDEPTVPTPDLSNGWEAKFEAVLAAKPAVFSCTFGIFSAEEFARIKATGIEAWVTVTNPEDALAAQKAGANALVVQGPEAGGHRSTWSIEVEPDERDLKTLLAAVKQAGVYLPLIAAGGLSTSADVAAILEAGASAASCGSAFLLSDEAGTSSLNREILDAAPALGLESVSSRAFSGRYARGVETRFTRSNEGLPPLYPYLNPMITSLRKVAGSAGNWDYAYCLVGVGLESIAKGSAKQILESLTPSALEHHHHHH | failed |
| MGSPASASHEALRHILDAGASMGSLQGLDEAQQQALYAIAHGAYEQGRYADALKMFCLLVACDPLEARYLLALAAAAQELGLYEHALQQYAAAAALQLDSPRPLLHGAECLYALGRRRDALDTLDMVLELCGSPEHAALRERAESLRRSYARALEHHHHHH | failed |
| MGSPNSLSRRGFCLCCVGGATFAASAGWLTPREAYAEARGLVSLIKDSAAISPITASRLRNNISVLEGSGGNIAVLTGSDGKLLVDAGIRVSRAQLTNALAGLGTDPVTHLVNTHWHFDHADGNEWLHSAGAKIIAHENTRKHLLGVQRVEDWDYNFLPLGPGGIPSEVFAGSHKLGLNGASISLKYFGPAHTDSDVSVTFVEANIVHVGDTFWNGIYPFIDYSTGGSIDGMIAACDANLAATDKDTIIIPGHGKPVSNKAELQAFRDMLVAIRDNVARLKAQGRTWDETVAAKPTAAFDAQWGQFVIDPGFFTRLVYQGV | failed |
| MGSRDLISSLPDEILGKVLSLLPTKRAASTAVLSKRWNNLPALVDKLDINDAIGGPGGFPEFIDKTLALLTNSTTIKRTSLNNEFQYGESQVNTWIRSFLERGCLQLYLNAQSLYTIDTEFFTSNTLVELTITGGFSPDGLLPPGGVFFPKLKTLSLVLMTFVDSDMYELFISGCPLLEEFLLRNDEIEIPPVWNALVSSPSIKRLTIVHHFPNYREAHDGCWFRTPNLVYLDYSSYVPDWYEVDLGSLVEARLDLRSWERLRDEKAGGYGDCDSVYDDEEYPDDPILGDVTNLVTGLSNIKTLHLSPDSLEVSFPYLLLFQFEVHSSLQSLLIV | failed |
| MGSRTHARKDASSEALQAPRLRTLLLTDLCDSTALVERIGDNAAAALFREHDRLVVKLQQHWRGRLIDRSDGLLLLFDRPIDGLGFALDYARGLKTMGDAHALTLCARQGLHVGEVLTWRNSDEAISIGAKPLEVEGLAKPTAARLMSMARPGQILLSAVAESLTHRAARELGNRADRLLWKSHGRWRFKGMPTPMEIYEVGEVGLTPLRMPKNSAKAWRDVPLWRRPAALVAEVGVVLAVGIAAWFFIRPQPAIAFASRDWVVVGDVRNLTGNTVLDGALEQALRISLEQSRYVNVLSDMKVRDTVTRMKRDPNTIVLDRSVASEVALRDGASAVLLPTVAEVGGKLRFSVELVDPRTQTTVYSEFVQGDGLPSALSSVDQVTRKLRQGLGEMVASIDKNSVPLPAVTTSSLDALRAYALGVEATAKGRWREGLELFDRAVGIDPTFALAYLGAARIKVAVSDRNGALPYLDNAVRFRQRLPARDQLYLDAWIAELRAVDTALPLWRTLASLYPDNFAGAANTSWHLFVANRFADALPYAQAADVVQDPLRSIASDRIGRILMAQGKVEAALQRFENSSDGDRAGPLRRQADALAVLGRYAEEQRTLDRIVDNGYANDDVVPLIDRTSIALDQANWANANAAVAQALERSKHTDDFSYRQFLVIGATTAAITGETASVGPGMSSTFEALVGAIKANGPAEPNLQDDAAMVLSLVSQAQRNGDDQFTARALSAIKPALAHETPVLADLRAIVEAQHLALSGDRVAAIARLPPGPDDLLQMRVTLYTLLHDSGRHAEALQQARWLSLQRGRAYIEANASQTLQPLNVAHTRLARLWTAESLYALGRTQEAREQAQAFVRAWPASHLPAYLRSRVERILSDSKAKITV | failed |
| MGSSHHHHHHENLYFQGTSVMITENQSVNAKGKYEKMNRLYDTNKLHQYYSGPSYELTNVSGQSQGYYDSNVLLFNQQNQKFQVFLLGKDENKYKEKTHGLDVFAVPELVDLDGRIFSVSGVTKKNVKSIFESLRTPNLLVKKIDDKDGFSIDEFFFIQKEEVSLKELDFKIRKLLIKKYKLYEGSADKGRIVINMKDENKYEIDLSDKLDFERMADVINSEQIKNIEVNLK | not failed |
| MGSSHHHHHHSSGLVIRGSHMRIALMQHTARPLDPQHNLDLIDDAAARASEQGAQLLLTPELFGFGYVPSQICAQVSAEQVDAARSRLRGIARDRGIALVWSLPGPEGPEQRGITAELADEHGEVLASYQKVQLYGPEEKAAFVPGEQPPPVLSWGGRQLSLLVCYDVEFPEMVRAAAARGAQLVLVPTALAGDETSVPGILLPARAVENGITLAYANHCGPEGGLVFDGGSVVVGPAGQPLGELGVEPGLLVVDLPDQSQDAGSDSADYLQDRRAELHRNWL | not failed |
| MGSSHHHHHHSSGRENLYFQGHMAATAREDGASGQERGQRGCEHYDRGCLLKAPCCDKLYTCRLCHDNNEDHQLDRFKVKEVQCINCEKIQHAQQTCEECSTLFGEYYCDICHLFDKDKKQYHCENCGICRIGPKEDFFHCLKCNLCLAMNLQGRHKCI | not failed |
